From patent US20150132307A1 (Hoffmann-La Roche, published 2015)

T1: Human recombinant soluble TWEAK (Example 6) (human, UniProt O43508 99-249, limits assumed)
T1 sequence: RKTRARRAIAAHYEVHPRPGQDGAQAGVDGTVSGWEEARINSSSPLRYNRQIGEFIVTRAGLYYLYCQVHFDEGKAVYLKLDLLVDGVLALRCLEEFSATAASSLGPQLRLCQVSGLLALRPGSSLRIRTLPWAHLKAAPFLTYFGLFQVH

T2: Recombinant human TWEAK (R&D Systems; Cat. #1090-TW/CF) (human, UniProt O43508 97-249, limits assumed)
T2 sequence: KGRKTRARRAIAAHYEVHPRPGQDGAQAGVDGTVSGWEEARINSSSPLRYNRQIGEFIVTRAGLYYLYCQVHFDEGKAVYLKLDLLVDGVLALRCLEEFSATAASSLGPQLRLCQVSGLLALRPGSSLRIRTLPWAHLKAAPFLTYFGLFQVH

T3: Biotinylated human soluble TWEAK (amino acids 99-249 of SEQ ID NO: 68) (human, UniProt O43508 99-249, biotinylated)
T3 construct: also called Human TWEAK
T3 sequence: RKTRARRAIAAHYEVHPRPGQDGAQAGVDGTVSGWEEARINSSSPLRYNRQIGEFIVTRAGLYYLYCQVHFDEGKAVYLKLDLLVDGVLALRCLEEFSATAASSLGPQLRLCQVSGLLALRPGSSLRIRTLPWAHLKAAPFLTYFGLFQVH

T4: human Tweak-Fc (human, UniProt O43508 106-249, limits assumed)
T4 construct: not shown: Fc part
T4 sequence: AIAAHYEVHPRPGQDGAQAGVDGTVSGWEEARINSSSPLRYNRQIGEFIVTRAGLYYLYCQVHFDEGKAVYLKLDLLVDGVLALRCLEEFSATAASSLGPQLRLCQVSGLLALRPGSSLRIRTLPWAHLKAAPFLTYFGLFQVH

T5: human Flag-tagged soluble TWEAK (amino acids 106-249) (human, UniProt O43508 106-249)
T5 construct: The sentence gives amino acids 106-249 without naming the entry; also called Human TWEAK; not shown: Flag tag
T5 sequence: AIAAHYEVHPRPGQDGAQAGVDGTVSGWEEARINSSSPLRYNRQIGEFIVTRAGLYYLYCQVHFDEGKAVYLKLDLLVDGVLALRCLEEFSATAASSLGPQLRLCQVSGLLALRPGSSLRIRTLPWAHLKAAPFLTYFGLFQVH

T6: Mouse soluble TWEAK (untagged, Example 5) (mouse, UniProt O54907 105-249, limits assumed)
T6 construct: also called Murine TWEAK
T6 sequence: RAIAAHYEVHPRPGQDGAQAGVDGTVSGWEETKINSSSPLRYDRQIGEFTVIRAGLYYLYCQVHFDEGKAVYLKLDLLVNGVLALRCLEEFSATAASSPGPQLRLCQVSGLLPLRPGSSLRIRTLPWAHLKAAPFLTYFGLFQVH

T7: IL-17 F/F (human, UniProt Q96PD4 31-163)
T7 construct: read as the homodimer of IL17F
T7 sequence: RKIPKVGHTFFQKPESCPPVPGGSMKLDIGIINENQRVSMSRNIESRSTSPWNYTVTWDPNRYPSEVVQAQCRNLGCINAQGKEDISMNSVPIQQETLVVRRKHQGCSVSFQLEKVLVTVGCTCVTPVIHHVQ


How the values were obtained:
[1] = target: T1, Human recombinant soluble TWEAK …; assay: cell-based or functional assay
[2] = target: T2, Recombinant human TWEAK (R&D Systems; …); assay: cell-based or functional assay
[3] = target: T3, Biotinylated human soluble TWEAK (amino …); assay: SPR (Biacore), biotinylated soluble TWEAK on streptavidin chip, 25 C
Method: A Biacore 2000 instrument was used with a Biacore streptavidin coated sensor mounted into the system. The system buffer HBS-ET (10 mM HEPES pH 7.4, 150 mM NaCl, 1 mM EDTA, 0.05% Tween® 20) was used at a flow rate of 100 μl/min. The sample buffer was the system buffer. Biotinylated human soluble TWEAK (amino acids 99-249 of SEQ ID NO: 68) and biotinylated murine soluble TWEAK (amino acids 81-225 of SEQ ID NO: 69) was immobilized on different flow cells on the SA sensor at 150 RU each. The flow cell FC1 was used as a blank reference cell. Each antibody was injected into the system as an analyte at 100 nM at 100 μl/min for 2 min association time. The dissociation of the immunecomplexes were monitored for 5 min. The sensor surface was washed with HBS-ET for 10 seconds and regenerated using 2×2 minutes injections with 10 mM glycine pH 2.25. This procedure was done at 25° C. The kinetically rate limiting step of the complex dissociation phase in the interval [240 s-300 s] was taken to calculate the dissociation rate kd [1/s] (Biacore Evaluation Software 4.0). According to the equation t1/2 diss=ln(2)/(60×kd), the half-life of the immunocomplexes in minutes was calculated.

[4] = target: T3, Biotinylated human soluble TWEAK (amino …); assay: SPR (Biacore), biotinylated soluble TWEAK on streptavidin chip, 37 C
[5] = target: T4, human Tweak-Fc; assay: SPR (BIAcore T100), TWEAK ligand (Tweak-Fc) amine-coupled on C1 chip, antibody as analyte, 25 C
Method: (§1) Around 100 resonance units (RU) of TWEAK was immobilized on the C1 chip surface at pH 5.0 using an amine coupling kit supplied by the GE Healthcare. The sample and system buffer was PBS-T (10 mM phosphate buffered saline including 0.05% Tween20) pH 7.4. Association was measured by injection the bispecific antibody in various concentrations in solution for 3 min at a flow of 30 μl/min starting with 50 nM in 1:1 dilutions. The dissociation phase was monitored for up to 10 min and triggered by switching from the sample solution to running buffer. The surface was regenerated by three times 30 sec. washing with a 3M MgCl2 solution at a flow rate of 30 μl/min. Bulk refractive index differences were corrected by subtracting the response obtained from a blank-coupled surface. Blank injections are also subtracted (=double referencing). For calculation of apparent KD and other kinetic parameters the Langmuir 1:1 model was used.

[6] = target: T4, human Tweak-Fc; assay: SPR (BIAcore T100), TWEAK ligand (Tweak-Fc) amine-coupled on C1 chip, antibody as analyte, 25 C, 1:1 model
Method: as §1

[7] = target: T5, human Flag-tagged soluble TWEAK (amino …); assay: receptor interaction ELISA: Flag-TWEAK preincubated with antibody, then on coated human Fn14:Fc (competitor m21)
Method: 96-well Maxisorp® plates (Nunc) were coated with 100 μl 1 μg/ml human Fn14:Fc (extracellular domain of human Fn14 (amino acids 1-75 of SEQ ID NO: 98) fused to Fc portion of human IgG1) in PBS per well for 1.5 h at room temperature and blocked with a solution of 5% FBS in PBS for 30 minutes at room temperature under shaking. […] After washing the Fn14-coated plate once with wash buffer (0.1% Tween® 20 in PBS), 100 μl of the TWEAK-antibody solution were transferred to each well and the plate was incubated for 1 h at room temperature, followed by four washes with wash buffer. Wells were filled with 100 μl of anti-FLAG-HRP detection antibody, diluted 1:5000 in blocking buffer, and incubated for 1 h at room temperature. After four more wash steps, the signal was developed by addition of 100 μl 3,3,5,5-Tetramethylbenzidine (TMB) solution for approximately ten minutes. The reaction was stopped by adding 100 μl of 1 N HCl, and absorbance measured at 450 nm (reference wavelength 620 nm).

[8] = target: T4, human Tweak-Fc; assay: SPR (BIAcore T100), TWEAK ligand (Tweak-Fc) amine-coupled on C1 chip, antibody as analyte, 25 C, apparent KD, 1:1 model
[9] = target: T6, Mouse soluble TWEAK (untagged, Example …); assay: receptor interaction ELISA: mouse soluble TWEAK preincubated with antibody, then on coated mouse Fn14:Fc (competitor m22)
Method: Briefly, Maxisorp plates were coated with mouse Fn14:Fc (extracellular domain of mouse Fn14 (amino acids 1-75 of SEQ ID NO: 98) fused to Fc portion of human IgG1) as described above for human Fn14:Fc, followed by blocking and washing. […] After 1 h of incubation at room temperature and four washes, biotinylated anti-mouse TWEAK antibody at 125 ng/ml in blocking buffer was added for 1 h at room temperature, followed by another four wash steps. The TWEAK antibody was detected by incubation with streptavidin-HRP, diluted 1:5000 in blocking buffer, for 30 minutes at room temperature. Signal was developed and absorbance measured as described above.

[10] = target: recombinant human IL-17 (Peprotech #200-17) (human, UniProt Q16552 20-155); assay: cell-based or functional assay
[11] = target: T7, IL-17 F/F; assay: SPR (BIAcore T100), antibody captured by anti-human F(ab')2, IL17 as analyte, 25 C
Method: (§2) Around 12000 resonance units (RU) of the capturing system (10 μg/ml goat anti human F(ab′)2; Order Code: 28958325; GE Healthcare Bio-Sciences AB, Schweden) were coupled on a CMS chip at pH 5.0 by using an amine coupling kit supplied by the GE Healthcare. The sample and system buffer was PBS-T (10 mM phosphate buffered saline including 0.05% Tween20) pH 7.4. The bispecific antibody was captured by injecting a 50 nM solution for 1 min at a flow of 10 μl/min. Association was measured by injection human IL17 in various concentrations in solution for 3 min at a flow of 30 μl/min starting with 50 nM in 1:1 dilutions. The dissociation phase was monitored for up to 5 min and triggered by switching from the sample solution to running buffer. The surface was regenerated by two times 60 sec. washing with a glycin pH 2.1 solution at a flow rate of 30 μl/min. Bulk refractive index differences were corrected by subtracting the response obtained from a goat anti human F(ab′)2 surface. Blank injections are also subtracted (=double referencing). For calculation of apparent KD and other kinetic parameters the Langmuir 1:1 model was used.

[12] = target: T8, IL-17 A/F (human, UniProt Q16552 24-155; Q96PD4 31-163); assay: SPR (BIAcore T100), antibody captured by anti-human F(ab')2, IL17 as analyte, 25 C, 1:1 model
T8 construct: read as the heterodimer of IL17A and IL17F
Method: as §2

[13] = target: human IL17A/A (human, UniProt Q16552 24-155, limits assumed); assay: SPR (BIAcore T100), antibody captured by anti-human F(ab')2, IL17 as analyte, 25 C, apparent KD, 1:1 model
Method: as §2

[14] = target: T4, human Tweak-Fc; assay: SPR (BIAcore T100), TWEAK ligand (Tweak-Fc) amine-coupled on C1 chip, bispecific antibody as analyte, 25 C
Source text: (§3) The BIAcore® system is well established for the study of molecule interactions. SPR-technology is based on the measurement of the refractive index close to the surface of a gold coated biosensor chip. Changes in the refractive index indicate mass changes on the surface caused by the interaction of immobilized ligand with analyte injected in solution. The mass increases if molecules bind immobilized ligands on the surface, and vice versa, the mass decreases in case of dissociation of the analyte from the immobilized ligand (reflecting complex dissociation). SPR allows a continuous real-time monitoring of ligand/analyte binding and thus the determination of the association rate constant (ka), the dissociation rate constant (kd), and of the equilibrium constant (KD).
(§4) Around 100 resonance units (RU) of TWEAK was immobilized on the C1 chip surface at pH 5.0 using an amine coupling kit supplied by the GE Healthcare. The sample and system buffer was PBS-T (10 mM phosphate buffered saline including 0.05% Tween20) pH 7.4. Association was measured by injection the bispecific antibody in various concentrations in solution for 3 min at a flow of 30 μl/min starting with 50 nM in 1:1 dilutions. The dissociation phase was monitored for up to 10 min and triggered by switching from the sample solution to running buffer. […]

[15] = target: T4, human Tweak-Fc; assay: SPR (BIAcore T100), TWEAK ligand (Tweak-Fc) amine-coupled on C1 chip, bispecific antibody as analyte, 25 C, 1:1 model
Source text: as §3, §1

[16] = target: T4, human Tweak-Fc; assay: SPR (BIAcore T100), TWEAK ligand (Tweak-Fc) amine-coupled on C1 chip, bispecific antibody as analyte, 25 C, apparent KD, 1:1 model
Source text: as §3, §4

Chain of recombinant human IL-17 (Peprotech #200-17) (Q16552 20-155 limits assumed): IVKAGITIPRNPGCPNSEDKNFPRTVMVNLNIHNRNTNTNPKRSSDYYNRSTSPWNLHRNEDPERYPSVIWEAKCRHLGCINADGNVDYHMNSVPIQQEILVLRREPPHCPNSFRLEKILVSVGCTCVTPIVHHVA
Chain of human IL17A/A (Q16552 24-155 limits assumed): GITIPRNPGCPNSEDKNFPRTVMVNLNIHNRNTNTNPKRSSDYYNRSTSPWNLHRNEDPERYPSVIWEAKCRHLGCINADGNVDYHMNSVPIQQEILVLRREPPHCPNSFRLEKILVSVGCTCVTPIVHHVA
T8 sequence (Q16552 24-155 limits assumed, one chain of several): as the sequence (Q16552 24-155 limits assumed) above

Inhibition of IL8-Secretion [ng/ml] (A375 cells) [1] [ng/mL]	IC50 (nM) per valency, Tweak induced HFLS proliferation (CellTiter Glo) [2] [nM]	Biacore t/2 diss. [min] 25° C. human [3] [min]	Biacore t/2 diss. [min] 37° C. human [4] [min]	T½ [5] [h]	koff [6] [s⁻¹]	kon [6] [M⁻¹ s⁻¹]	IC50 [7] [ng/mL]	Kd [8] [nM]	IC50 [9] [ng/mL]	IL-6 IC50 [nM] per valency (IL-17 induced cytokine production, HFLS-RA) [10] [nM]	IL-8 IC50 [nM] per valency (IL-17 induced cytokine production, HFLS-RA) [10] [nM]	Kd [12] [nM]	Kd [13] [nM]	T½ [14] [h]	koff [15] [s⁻¹]	kon [15] [M⁻¹ s⁻¹]	Kd [16] [nM]	Binder	binding result [11]
197	0.152	110	147	3.37	5.71e-05	2.27e+06	2.3	0.0252	8.2									Humanized <TWEAK> 305- antibody 27 (antibody, V domains shown) VH: QVQLVQSGAEVKKPGSSVKVSCKASGFDFSTYYMSWVRQAPGQGLEWMGTVYVRQGTTYYASWLNGRVTITADESTSTAYMELSSLRSEDTAVYYCARGGYNYDDAFVIWGQGTLVTVSS VL: DIQMTQSPSSVSASVGDRVTITCQASQNIYSNLAWYQQKPGKAPKLLIYTASYLASGVPSRFSGSGSGTDYTLTISSLQPEDFATYYCQTAYYNSRPDTVAFGGGTKVEIK	
	0.157									1.72	1.1	0.27	0.15	3.55	5.42e-05	426000	0.127	Bispecific <Tweak-IL-17> #4 antibody (bispecific antibody, human IgG1, kappa, Bivalent one-armed scFab format (WO 2011/117330), IgG1 knobs-into-holes) heavy 1: not shown heavy 2: not shown light: DIVMTQSPLSLPVTPGEPASISCRSSQSLVHSNGDTYFHWYLQKPGQSPQLLIYKVSNRFSGVPDRFSGSGSGTDFTLKISRVEAEDVGVYYCSQTTHAPFTFGQGTKLEIKRTVAAPSVFIFPPSDEQLKSGTASVVCLLNNFYPREAKVQWKVDNALQSGNSQESVTEQDSKDSTYSLSSTLTLSKADYEKHKVYACEVTHQGLSSPVTKSFNRGEC	no binding (tested: IL17 injected starting with 50 nM)
